According to patent US20200277377A1 (WUXI BIOLOGICS SHANGHAI, published 2020):

T1: hCTLA4_ECD.His point mutant C85 to alanine (human, UniProt P16410 36-161)
T1 construct: extracellular domain; alanine-scan mutein, HEK293F supernatant
T1 sequence (looked up): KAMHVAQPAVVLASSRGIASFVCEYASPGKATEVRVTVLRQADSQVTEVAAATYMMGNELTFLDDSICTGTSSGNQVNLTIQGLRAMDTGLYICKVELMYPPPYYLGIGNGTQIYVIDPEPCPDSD

T2: hCTLA4_ECD.His point mutant G146 to alanine (human, UniProt P16410 36-161)
T2 construct: extracellular domain; alanine-scan mutein, HEK293F supernatant
T2 sequence (looked up): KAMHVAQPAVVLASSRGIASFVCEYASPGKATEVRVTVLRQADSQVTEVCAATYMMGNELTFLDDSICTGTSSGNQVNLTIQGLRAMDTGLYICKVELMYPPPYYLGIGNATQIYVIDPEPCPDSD

T3: hCTLA4_ECD.His point mutant P137 to alanine (human, UniProt P16410 36-161)
T3 construct: extracellular domain; alanine-scan mutein, HEK293F supernatant
T3 sequence (looked up): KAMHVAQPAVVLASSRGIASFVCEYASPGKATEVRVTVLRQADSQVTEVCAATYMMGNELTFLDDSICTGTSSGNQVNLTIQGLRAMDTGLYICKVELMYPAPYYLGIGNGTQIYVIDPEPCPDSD

T4: hCTLA4_ECD.His point mutant H39 to alanine (human, UniProt P16410 36-161)
T4 construct: extracellular domain; alanine-scan mutein, HEK293F supernatant
T4 sequence (looked up): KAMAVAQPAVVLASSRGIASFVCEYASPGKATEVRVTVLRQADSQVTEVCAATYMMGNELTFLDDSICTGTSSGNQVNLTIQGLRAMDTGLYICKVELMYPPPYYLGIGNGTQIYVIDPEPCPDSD

T5: hCTLA4_ECD.His point mutant I149 to alanine (human, UniProt P16410 36-161)
T5 construct: extracellular domain; alanine-scan mutein, HEK293F supernatant
T5 sequence (looked up): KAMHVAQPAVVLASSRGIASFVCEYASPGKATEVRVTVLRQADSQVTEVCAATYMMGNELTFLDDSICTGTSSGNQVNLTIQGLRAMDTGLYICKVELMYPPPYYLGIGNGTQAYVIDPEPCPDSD

T6: hCTLA4_ECD.His point mutant E83 to alanine (human, UniProt P16410 36-161)
T6 construct: extracellular domain; alanine-scan mutein, HEK293F supernatant
T6 sequence (looked up): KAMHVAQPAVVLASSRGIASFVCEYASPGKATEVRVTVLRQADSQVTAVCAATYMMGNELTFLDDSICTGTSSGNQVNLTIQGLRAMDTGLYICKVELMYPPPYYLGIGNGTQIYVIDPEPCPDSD

T7: hCTLA4_ECD.His point mutant C129 to alanine (human, UniProt P16410 36-161)
T7 construct: extracellular domain; alanine-scan mutein, HEK293F supernatant
T7 sequence (looked up): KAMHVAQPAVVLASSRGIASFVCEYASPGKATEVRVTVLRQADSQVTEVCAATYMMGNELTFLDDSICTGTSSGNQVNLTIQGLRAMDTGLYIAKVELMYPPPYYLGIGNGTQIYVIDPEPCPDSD

T8: hCTLA4_ECD.His point mutant P138 to alanine (human, UniProt P16410 36-161)
T8 construct: extracellular domain; alanine-scan mutein, HEK293F supernatant
T8 sequence (looked up): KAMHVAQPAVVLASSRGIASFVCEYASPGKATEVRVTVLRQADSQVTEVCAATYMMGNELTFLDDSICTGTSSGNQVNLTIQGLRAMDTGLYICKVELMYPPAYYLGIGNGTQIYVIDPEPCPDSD

T9: hCTLA4_ECD.His point mutant V73 to alanine (human, UniProt P16410 36-161)
T9 construct: extracellular domain; alanine-scan mutein, HEK293F supernatant
T9 sequence (looked up): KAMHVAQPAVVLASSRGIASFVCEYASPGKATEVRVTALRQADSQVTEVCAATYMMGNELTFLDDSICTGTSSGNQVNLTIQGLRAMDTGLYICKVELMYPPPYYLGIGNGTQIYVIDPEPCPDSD

T10: hCTLA4_ECD.His point mutant L74 to alanine (human, UniProt P16410 36-161)
T10 construct: extracellular domain; alanine-scan mutein, HEK293F supernatant
T10 sequence (looked up): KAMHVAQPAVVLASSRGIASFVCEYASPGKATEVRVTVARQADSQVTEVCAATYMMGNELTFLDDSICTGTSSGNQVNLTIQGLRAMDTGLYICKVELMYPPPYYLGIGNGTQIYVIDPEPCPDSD

T11: hCTLA4_ECD.His point mutant M134 to alanine (human, UniProt P16410 36-161)
T11 construct: extracellular domain; alanine-scan mutein, HEK293F supernatant
T11 sequence (looked up): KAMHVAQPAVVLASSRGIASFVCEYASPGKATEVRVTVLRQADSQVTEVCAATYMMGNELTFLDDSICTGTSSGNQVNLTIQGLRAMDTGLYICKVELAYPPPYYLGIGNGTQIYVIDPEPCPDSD


Assays:
Test in all cases: capture ELISA, alanine scan, vs silent alanine substitutions
[1] = target: T1, hCTLA4_ECD.His point mutant C85 to …
Procedure: (§1) In order to test how the mutations affect antibody-binding, a capture ELISA was conducted. […] After interacting with the supernatant that contains quantified CTLA4 muteins, HRP conjugated anti-His antibody (1:5000; Rockland Immunochemicals, Pottstown, Pa.) was added as detection antibody. TMB was used as substance of HRP. Absorbance was normalized according to the average of control mutants. After setting an additional cutoff to the binding fold change (<0.55), the final determined epitope residues were identified.

[2] = target: T2, hCTLA4_ECD.His point mutant G146 to …
Procedure: as §1

[3] = target: T3, hCTLA4_ECD.His point mutant P137 to …
Procedure: as §1

[4] = target: T4, hCTLA4_ECD.His point mutant H39 to …
Procedure: as §1

[5] = target: T5, hCTLA4_ECD.His point mutant I149 to …
Procedure: as §1

[6] = target: T6, hCTLA4_ECD.His point mutant E83 to …
Procedure: as §1

[7] = target: T7, hCTLA4_ECD.His point mutant C129 to …
Procedure: as §1

[8] = target: T8, hCTLA4_ECD.His point mutant P138 to …
Procedure: as §1

[9] = target: T9, hCTLA4_ECD.His point mutant V73 to …
Procedure: as §1

[10] = target: T10, hCTLA4_ECD.His point mutant L74 to …
Procedure: as §1

[11] = target: T11, hCTLA4_ECD.His point mutant M134 to …
Procedure: as §1

Fold change [1] [fold] | Fold change [2] [fold] | Fold change [3] [fold] | Fold change [4] [fold] | Fold change [5] [fold] | Fold change [6] [fold] | Fold change [7] [fold] | Fold change [8] [fold] | Fold change [9] [fold] | Fold change [10] [fold] | Fold change [11] [fold] | Binder
0.256 | 0.166 | 0.425 | 0.529 | 0.183 | 0.405 | 0.182 | 0.445 | 0.338 | 0.398 | 0.254 | W3162-1.146.19-z12-uAb.IgG1K (antibody, V domains shown, Humanized; label says IgG1K) VH: QVQLQESGPGLVKPSETLSLTCSVTYHTITSGYDWTWIRKPPGKGMEWIGYISYSGNTNYNPSLKSRVTISRDTSKNQFFLKLSSVTAADTAVYYCASMMVPHYYVMDAWGQGTLVTVSS VL: DIVMTQTPLSLSVTPGQPASISCRSSQSLLNSDGNTYLYWYLQKPGQSPQLLIYLVSKLGSGVPNRFSGSGSGTDFTLKISRVEAEDVGVYYCVQGTHDPWTFGGGTKVEIK
0.218 | 0.201 | 0.534 | 0.549 | 0.319 | 0.479 | 0.211 | 0.339 | 0.498 | 0.52 | 0.455 | W3162_1.154.8-z35-uAb.IgG1K (antibody, V domains shown, Humanized; label says IgG1K) VH: QVQLVQSGAEVKKPGSSVKVSCKASGYTFTNYFMNWVRQAPGQGLEWMGRVDPEQGRADYAEKFKKRVTITADKSTSTAYMELSSLRSEDTAVYYCARRAMDNYGFAYWGQGTLVTVSS VL: EIVLTQSPDFQSVTPKEKVTITCSANSALSYMYWYQQKPDQSPKLWVHGTSNLASGVPSRFSGSGSGTDFTLTINSLEAEDAATYYCHHWSNTQWTFGGGTKVEIK
